Test results from publication PMC3827234.

Molecular target: hamster integrin αv subunit, endogenous in CHO cells (Chinese hamster (endogenous in CHO))
Experiment: flow cytometry on cells; CHO cells transiently transfected with the β3 plasmid alone, harvested after 48 h; the chimeric complex of human β3 and hamster αv on the cell surface was stained with FITC anti-αvβ3 (LM609; Figure 2C) or with the monoclonal antibody to β3 (Figure 2D); read-out is the percentage of positive cells

percent of the level of the WTβ3-hamster αv complex (LM609 staining): 78%
Substance: integrin β3 subunit with the Pro189Ser substitution (P163S in the mature protein) (from UniProt P05106 27-788) (receptor)
